Target: the molecule itself
Experiment: native gel or EMSA

B1: wild-type D-amino acid oxidase from Schizosaccharomyces pombe (enzyme, UniProt Q9Y7N4 1-348, looked up)
chain: MTKENKPRDIVIVGAGVIGLTTAWILSDLGLAPRIKVIAKYTPEDRSVEYTSPWAGANFCSISATDDNALRWDKITYHRFAYLAKTRPEAGIRFADLRELWEYEPKHDKIRSWNTYVRDFKVIPEKDLPGECIYGHKATTFLINAPHYLNYMYKLLIEAGVEFEKKELSHIKETVEETPEASVVFNCTGLWASKLGGVEDPDVYPTRGHVVLVKAPHVTETRILNGKNSDTYIIPRPLNGGVICGGFMQPGNWDREIHPEDTLDILKRTSALMPELFHGKGPEGAEIIQECVGFRPSRKGGARVELDVVPGTSVPLVHDYGASGTGYQAGYGMALDSVMLALPKIKLA
B1: binds.
